Reference: patent publication US5302370A, “Chelating agents for forming complexes with radioactive isotopes, metal complexes thereof and use thereof in diagnosis and therapy” (Institut fur Diagnostikforschung GmbH, priority 1989, dated 1994)

Columns and labels:
[1] = test system: HT-29 human carcinoma (antigen-positive tumour); assay: Bio-distribution of a protein-bonded Tc-99m complex in hairless mice: antigen-positive HT-29 tumour; type: in vivo, human carcinoma in immune-deficient hairless mice
Experimental: (§1) The monoclonal antibody 17-1A was obtained by methods known in the literature, after application of 10^7 of the corresponding hybridoma cells to the abdominal cavity of a Balb/c-mouse and suction of the ascites fluid after 7-10 days. Purification was brough about likewise by methods known in the literature, by ammonium sulphate precipitation and affinity chromatography over protein A-sepharose. The purified antibody (10 mg/ml) was treated with 25 μg/ml pepsin at pH 3.5 for 2 hours and then isolated by FPLC. Before coupling to the chelating agent, the fragments were dialysed against 0.1M KH2 PO4 /0.1M NaHCO3, pH 8.5, at 4° C. for 12-24 hours. The protein concentration was adjusted to 10 mg/ml. A 5-fold molar excess of the NCS-containing chelating agent [Example 1] was dissolved in a minimum amount of the same buffer and added to the protein solution. […]
(§2) The bio-distribution of protein-bonded chelates will be described, using a conjugate of F(ab)2 fragments of the monoclonal antibody 17-1A and the compound [7] prepared in Example 1 as a model. […] The immune reactivity of the conjugates was 70-80% as determined by bonding to an excess of antigen in the cell. The bio-distribution 24 hours after administration of the conjugate was determined by killing the animals, removing the organs and measuring the radioactivity therein.

[2] = Bio-distribution of a protein-bonded Tc-99m complex in tumour-bearing hairless mice: organs; type: in vivo, immune-deficient hairless mice; details: 24 hours after i.v. 20 μg conjugate labelled with 200 μCi
Experimental: The monoclonal antibody 17-1A was obtained by methods known in the literature, after application of 10^7 of the corresponding hybridoma cells to the abdominal cavity of a Balb/c-mouse and suction of the ascites fluid after 7-10 days. Purification was brough about likewise by methods known in the literature, by ammonium sulphate precipitation and affinity chromatography over protein A-sepharose. The purified antibody (10 mg/ml) was treated with 25 μg/ml pepsin at pH 3.5 for 2 hours and then isolated by FPLC. Before coupling to the chelating agent, the fragments were dialysed against 0.1M KH2 PO4 /0.1M NaHCO3, pH 8.5, at 4° C. for 12-24 hours. The protein concentration was adjusted to 10 mg/ml. A 5-fold molar excess of the NCS-containing chelating agent [Example 1] was dissolved in a minimum amount of the same buffer and added to the protein solution. In order to form the conjugate, the mixture was incubated at 37° C. for 3 hours. Next, the conjugate was dialysed 24-48 hours against PBS (phosphate-buffered saline) with repeated change of buffer, and the protein concentration was re-adjusted to 10 mg/ml when necessary. Before labelling with Tc-99m, the conjugate could be kept in acid-cleaned glass vessels after sterile filtration at 4° C.
1 mg of the antibody fragment coupled to the chelating agent was labelled with TC-99m by adding 10 mCi pertechnetate solution (=1-2 ml) and 100 μg tin-II chloride in a solution of Na pyrophosphate (1 mg/ml) scavenged with argon or by ligand exchange e.g. by mixing the solution with a commercially obtainable glucoheptonate kit to which pertechnetate had been added.
(§3) The bio-distribution of protein-bonded chelates will be described, using a conjugate of F(ab)2 fragments of the monoclonal antibody 17-1A and the compound [7] prepared in Example 1 as a model. The antibody from which the fragments were obtained recognise an antigen expressed from the human carcinoma cell line "HT-29". […] Isolated cells from both lines were subcutaneously administered to immune-deficient hairless mice. After the tumours had grown to a size of 300-800 mg, the mice were intravenously given 20 μg of the chelate conjugate [Example 17] labelled with 200 μCi. The conjugates were first freed from low-molecular constituents by gel filtration on PD 10 columns manufactured by Messrs. Bio-Rad. The immune reactivity of the conjugates was 70-80% as determined by bonding to an excess of antigen in the cell. The bio-distribution 24 hours after administration of the conjugate was determined by killing the animals, removing the organs and measuring the radioactivity therein.

[3] = test system: antigen expressed from the human carcinoma cell line "HT-29"; assay: Immune reactivity of the conjugates by bonding to an excess of antigen in the cell; type: binding; details: after gel filtration on PD 10
Experimental: as §3

[4] = test system: MX-1 human carcinoma (control, antigen not expressed); assay: Bio-distribution of a protein-bonded Tc-99m complex in hairless mice: antigen-negative MX-1 control tumour; type: in vivo, human carcinoma in immune-deficient hairless mice; details: MX-1 tumour (300-800 mg); 24 hours after i.v. 20 μg conjugate labelled with 200 μCi
Experimental: as §1, §2

B1: conjugate of F(ab)2 fragments of the monoclonal antibody 17-1A and the compound [7]: conjugate of F(ab)2 fragments of the monoclonal antibody 17-1A and the compound [7] prepared in Example 1, … (conjugate, chains of the INN, looked up)
VH: QVQLQQSGAELVRPGTSVKVSCKASGYAFTNYLIEWVKQRPGQGLEWIGVINPGSGGTNYNEKFKGKATLTADKSSSTAYMQLSSLTSDDSAVYFCARDGPWFAYWGQGTLVTVSA
VL: NIVMTQSPKSMSMSVGERVTLTCKASENVVTYVSWYQQKPEQSPKLLIYGASNRYTGVPDRFTGSGSATDFTLTISSVQAEDLADYHCGQGYSYPYTFGGGTKLEIK
modifications: F(ab')2 chelate compound [7], Tc-99m label
concentration of the chelate in the antigen-positive tumour ([1]; 24 hours after i.v. administration): marked concentration of the chelate in the antigen-positive tumour | % of applied dose per gram of tissue, HT29 ([1]; HT29 tumour (300-800 mg), 24 hours after i.v. 20 μg conjugate labelled with 200 μCi): 12.1 % of applied dose per gram of tissue | % of applied dose per gram of tissue, Blood ([2]; blood): 0.6 % of applied dose per gram of tissue | % of applied dose per gram of tissue, Kidneys ([2]; kidneys): 2.8 % of applied dose per gram of tissue | % of applied dose per gram of tissue, Liver ([2]; liver): 1.2 % of applied dose per gram of tissue | % of applied dose per gram of tissue, Lung ([2]; lung): 0.8 % of applied dose per gram of tissue | % of applied dose per gram of tissue, Muscle ([2]; muscle): 0.1 % of applied dose per gram of tissue | % of applied dose per gram of tissue, Spleen ([2]; spleen): 0.3 % of applied dose per gram of tissue | immune reactivity of the conjugates [3]: 70-80% | % of applied dose per gram of tissue, MX-1 [4]: 1.8 % of applied dose per gram of tissue
